Measurements reported in article PMC3671583.

B1: β-RAR DNA (dsDNA)
DNA 1: CACCGAAAGTTCACTC
DNA 2: GAGTGAACTTTCGGTG
B2: random DNA (dsDNA)
DNA 1: TGTTTCTGCCTCTGT
DNA 2: ACAGAGGCAGAAACA

Key:
Experiment in all cases: fluorescence anisotropy
[1] = target: MyT1-F2F3 (Rattus norvegicus, UniProt D3ZYT5 425-521)
[2] = target: NZF-1-F2F3 (Rattus norvegicus, UniProt P70475 487-584)
[3] = target: CCHFC NZF-1-F2F3 (Rattus norvegicus, UniProt P70475 487-584, H522A;H523F;H567F)
[4] = target: CCFHC NZF-1-F2F3 (Rattus norvegicus, UniProt P70475 487-584, H515F;H559F)
CCFHC NZF-1-F2F3, sequence (P70475 487-584 H515F/H559F): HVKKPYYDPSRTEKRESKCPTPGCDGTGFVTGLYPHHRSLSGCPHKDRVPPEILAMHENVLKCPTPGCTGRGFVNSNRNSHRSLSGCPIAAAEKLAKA

NZF-1-F2F3, sequence (P70475 487-584): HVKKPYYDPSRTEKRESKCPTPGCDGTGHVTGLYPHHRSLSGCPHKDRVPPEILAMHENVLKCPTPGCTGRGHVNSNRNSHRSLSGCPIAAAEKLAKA
CCHFC NZF-1-F2F3, sequence (P70475 487-584 H522A/H523F/H567F): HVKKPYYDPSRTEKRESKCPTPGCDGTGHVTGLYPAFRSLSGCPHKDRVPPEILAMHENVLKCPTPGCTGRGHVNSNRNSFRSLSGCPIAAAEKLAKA

Binder | Kd [1] [nM] | Kd [2] [nM] | binding result [3] | binding result [4] | binding result [2]
B1 | 1300 | 14 | no binding | no binding | –
B2 | 910 | – | no binding | no binding | no binding
